For orientation: Kd means a measure of binding affinity in units of concentration. Low readings indicate tighter binding, high ones weaker binding.

The experiment addresses human hemoglobin (human) (UniProt P69905). Put plainly: SPR. (Surface plasmon resonance follows binding to a sensor surface in real time, without labels.)
UniProt P69905, sequence (P69905 whole entry, chain 1 of 2): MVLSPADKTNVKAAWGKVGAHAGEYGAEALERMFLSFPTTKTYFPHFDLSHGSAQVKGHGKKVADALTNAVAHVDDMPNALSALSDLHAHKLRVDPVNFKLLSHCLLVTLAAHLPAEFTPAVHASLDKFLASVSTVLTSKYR
UniProt P69905, sequence (P68871 whole entry, chain 2 of 2, further chain): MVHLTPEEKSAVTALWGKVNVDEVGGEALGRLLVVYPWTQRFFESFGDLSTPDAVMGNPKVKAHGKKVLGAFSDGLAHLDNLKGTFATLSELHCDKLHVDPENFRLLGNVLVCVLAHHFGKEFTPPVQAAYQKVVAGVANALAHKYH

For “Spbhp-37 recombinant protein without the GST tag (natural protein)”, the Kd was found to be 357 nM.
